# From the supplement of paper PMC7877785
# ± gives the uncertainty stated by the source.
# Test: self-splicing fitness, log relative to wild type (ln ratio); higher = more splicing; Tetrahymena group I intron in knt gene, E. coli kanamycin selection, DiMSum; sequences stand for … in CUCUCU…GGAGGGAAAAGUUAUCAGGCAUGCACCUGGUAGCUAGUCUUUAAACCAAUAGAUUGCAUCGGUUUAAAAGGCAAGACCGUCAAAUUGCGGGAAAGGGGUCAACAGCCGUUCAGUACCAAGUCUCAGGGGAAACUUUGAGAUGGCCUUGCAAAGGGUAUGGUAAUAAGCUGACGGACAUGGUCCUAACCACGCAGCCAAGUCCUAAGUCAACAGAUCUUCUGUUGAUAUGGAUGCAGUUCACAGACUAAAUGUCGGUCGGGGAAGAUGUAUUCUUCUCAUAAGAUAUAGUCGGACCUCUCCUUAAUGGGAGCUAGCGGAUGAAGUGAUGCAACACUGGAGCCGCUGGGAACUAAUUUGUAUGCGAAAGUAUAUUGAUUAGUUUUGGAGUACUCGUGGUCG
# In short: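 Fitness was computed with DiMSum as the error-weighted combination of replicate fold changes, kanamycin versus none, each normalised to wild type. The library randomised all eight intron nucleotides of the P1ex region, with the intron placed in the knt kanamycin-resistance gene on pET-22b(+) in E. coli BL21(DE3). Six replicate transformations were grown overnight at 37°C or 30°C on LB agar with or without 25 μg/mL kanamycin, plus 100 μg/mL carbenicillin, 50 μM IPTG and 0.2% rhamnose. Pooled colonies were amplicon-sequenced on an Illumina HiSeq 2500.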
Sequence,self-splicing fitness (ln) (30 °C),self-splicing fitness (ln) (37 °C)
CGGUAGCAAUAUUACGAGUU,-3.87 ± 0.36,-3.26 ± 0.27
CGGUAGCAAUAUUACGAUGA,-1.38 ± 0.13,-0.66 ± 0.16
CGGUAGCAAUAUUACGCAUA,-4.37 ± 0.42,-2.34 ± 0.26
CGGUAGCAAUAUUACGCUGG,-0.433 ± 0.13,-0.681 ± 0.15
CGGUAGCAAUAUUACGGAUU,-2.63 ± 0.36,-2.23 ± 0.34
CGGUAGCAAUAUUACGGCCU,-0.555 ± 0.12,-0.911 ± 0.12
CGGUAGCAAUAUUACGGCUC,-1.15 ± 0.079,-0.532 ± 0.11
CGGUAGCAAUAUUACGGGAG,-3.22 ± 0.17,-1.71 ± 0.14
CGGUAGCAAUAUUACGGGAU,-3.86 ± 0.47,
CGGUAGCAAUAUUACGGGUG,-0.483 ± 0.068,0.146 ± 0.077
CGGUAGCAAUAUUACGGUCU,-0.673 ± 0.068,-0.251 ± 0.093
CGGUAGCAAUAUUACGGUGC,-2.22 ± 0.27,-2.48 ± 0.38
CGGUAGCAAUAUUACGGUGG,-0.519 ± 0.092,-0.124 ± 0.12
CGGUAGCAAUAUUACGUAAA,-1.14 ± 0.08,-2.33 ± 0.17
CGGUAGCAAUAUUACGUAUU,-2 ± 0.32,-2.16 ± 0.27
CGGUAGCAAUAUUACGUCGG,-0.5 ± 0.095,0.638 ± 0.12
CGGUAGCAAUAUUACGUGAG,-0.593 ± 0.059,0.467 ± 0.092
CGGUAGCAAUAUUACGUGCA,-1.61 ± 0.12,-0.501 ± 0.13
CGGUAGCAAUAUUACGUGCC,-1.18 ± 0.14,-4.06 ± 0.34
CGGUAGCAAUAUUACGUUAC,-3.32 ± 0.36,-2.09 ± 0.31
CGGUAGCAAUAUUACGUUGA,-3.27 ± 0.35,-1.76 ± 0.17
CGUAAGCAAUAUUACGAACA,-1.23 ± 0.19,-0.207 ± 0.22
CGUAAGCAAUAUUACGAAUU,-3.76 ± 0.29,-2.17 ± 0.21
CGUAAGCAAUAUUACGACCG,-0.867 ± 0.1,-0.46 ± 0.19

Sequence,self-splicing fitness (ln) (30 °C),self-splicing fitness (ln) (37 °C)
CGUAAGCAAUAUUACGACGC,-1.86 ± 0.3,-2.02 ± 0.28
CGUAAGCAAUAUUACGACUA,-2.29 ± 0.27,-1.96 ± 0.24
CGUAAGCAAUAUUACGAUCC,-2.82 ± 0.33,-1.82 ± 0.3
CGUAAGCAAUAUUACGCACG,-1.76 ± 0.14,-1.06 ± 0.17
CGUAAGCAAUAUUACGCAGG,-2.25 ± 0.094,-1.02 ± 0.11
CGUAAGCAAUAUUACGCCAG,-2.15 ± 0.15,-0.931 ± 0.18
CGUAAGCAAUAUUACGCGCA,-1.3 ± 0.16,-0.345 ± 0.14
CGUAAGCAAUAUUACGCGCU,-2.03 ± 0.14,-1.52 ± 0.15
CGUAAGCAAUAUUACGCGUC,-3.79 ± 0.21,-2.87 ± 0.19
CGUAAGCAAUAUUACGGACA,-0.986 ± 0.099,-1.18 ± 0.12
CGUAAGCAAUAUUACGGCAC,-3.68 ± 0.29,-0.595 ± 0.22
CGUAAGCAAUAUUACGGCCG,-0.668 ± 0.11,0.0976 ± 0.13
CGUAAGCAAUAUUACGGCCU,-3.28 ± 0.26,-1.54 ± 0.22
CGUAAGCAAUAUUACGGGUA,-2.63 ± 0.15,-2.48 ± 0.21
CGUAAGCAAUAUUACGGUGU,-4.11 ± 0.25,-3.24 ± 0.21
CGUAAGCAAUAUUACGUACA,-1.59 ± 0.13,-0.137 ± 0.13
CGUAAGCAAUAUUACGUCGA,-2.94 ± 0.21,-3.07 ± 0.2
CGUAAGCAAUAUUACGUGCC,-2.64 ± 0.23,-1.67 ± 0.2
CGUAAGCAAUAUUACGUGUU,-2.37 ± 0.1,-3.63 ± 0.2
CGUAAGCAAUAUUACGUUAU,-4.56 ± 0.26,-1.45 ± 0.19
CGUAAGCAAUAUUACGUUCG,-0.989 ± 0.056,-0.453 ± 0.078
CGUAAGCAAUAUUACGUUGA,-3.23 ± 0.19,-2.58 ± 0.18
CGUCAGCAAUAUUACGACUA,-0.58 ± 0.13,0.632 ± 0.18
